Experimental data as given in the supplement of paper PMC10567573.

B1: MYL5 (parent)
chain: DVAGNLDYKALSYVITHGEEKEE
B2: NR2F2 (parent)
chain: NIPFFPDLQITDQVALLRLTWSEL

Variants of: B1
Test: protein stability index of a GFP-peptide fusion (GPS, HEK-293T) (PSI 1-6); higher = more stable
Conditions: c terminus: native
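Further: lentivirally expressed fusions sorted by FACS into six bins by GFP to DsRed ratio, PSI derived from sequencing read proportions per bin multiplied by bin number.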

Variant	protein stability index
DVAGNLDYKALSYVITHGFEKEE	3.04
DVAGNLDYKALSYVITHGTEKEE	3.2
DVAGNLDYKALSYVITHGMEKEE	1.08
DVAGNLDYKALSYVITHGDEKEE	2.23
DVAGNLDYKALSYVITRGEEKEE	2.25
DVAGNLDYKALSYVITSGEEKEE	3.05
DVAGNLDYKALSYVITGGEEKEE	2.4
DVAGNLDYKALSYVITKGEEKEE	1.79
DVAGNLDYKALSYVITLGEEKEE	2.23
DVAGNLDYKALSYVIIHGEEKEE	2.33
DVAGNLDYKALSYVIHHGEEKEE	2.48
DVAGNLDYKALSYVITHGEEQEE	4.06
DVAGNLDYKALSYVITHGEEAEE	2.46
DVAGNLDYKALSYVITHGEEDEE	4.35
DVHGNLDYKALSYVITHGEEKEE	1.8
DVYGNLDYKALSYVITHGEEKEE	2.15
DVLGNLDYKALSYVITHGEEKEE	2.31
DVQGNLDYKALSYVITHGEEKEE	1.75
DVPGNLDYKALSYVITHGEEKEE	1.83
DVAHNLDYKALSYVITHGEEKEE	2.09
DVAANLDYKALSYVITHGEEKEE	2.02
DVAYNLDYKALSYVITHGEEKEE	1.57
DVASNLDYKALSYVITHGEEKEE	2.09
DVADNLDYKALSYVITHGEEKEE	1.82
DVAGNSDYKALSYVITHGEEKEE	1.7
DVAGNADYKALSYVITHGEEKEE	2.55

Variant	protein stability index
DVAGNYDYKALSYVITHGEEKEE	1.93
DVAGNMDYKALSYVITHGEEKEE	1.76
DVAGNWDYKALSYVITHGEEKEE	1.72
DVAGNLDYKALSYVGTHGEEKEE	2.31
DVAGNLDYKALSYVHTHGEEKEE	3.3
DVAGNLDYKALSYVPTHGEEKEE	2.16
DVAGNLDYKALSYVTTHGEEKEE	2.81
DVAGNLDYKALSYVVTHGEEKEE	2.59
DVAGNLDYKAMSYVITHGEEKEE	1.15
DVAGNLDYKATSYVITHGEEKEE	2.81
DVAGNLDYKAGSYVITHGEEKEE	2.48
DVAGNLDYKAISYVITHGEEKEE	1.93
PVAGNLDYKALSYVITHGEEKEE	1.66
CVAGNLDYKALSYVITHGEEKEE	2.21
NVAGNLDYKALSYVITHGEEKEE	2.24
TVAGNLDYKALSYVITHGEEKEE	2.13
VVAGNLDYKALSYVITHGEEKEE	1.66
DVAGNLDYKPLSYVITHGEEKEE	2.28
DVAGNLDYKNLSYVITHGEEKEE	2.48
DVAGNLDYKLLSYVITHGEEKEE	1.97
DVAGNLDYKELSYVITHGEEKEE	2.35
DVAGNLDYKWLSYVITHGEEKEE	4.9
DVAGNLDYKALSYVITHGERKEE	2.46
DVAGNLDYKALSYVITHGEAKEE	3.08
DVAGNLDYKALSYVITHGEPKEE	1.3
DVAGNLDYKALSYVITHGEVKEE	1.27

Variant	protein stability index
DVAGNLFYKALSYVITHGEEKEE	1.04
DVAGNLQYKALSYVITHGEEKEE	1.64
DVAGNLYYKALSYVITHGEEKEE	2.1
DVAGNLTYKALSYVITHGEEKEE	1.57
DVAGNLGYKALSYVITHGEEKEE	2.02
DVAGNLMYKALSYVITHGEEKEE	2.11
DVAGNLKYKALSYVITHGEEKEE	3.18
DVAGNLDYKALSVVITHGEEKEE	1.75
DVAGNLDYKALSKVITHGEEKEE	2.46
DVAGNLDYKALSFVITHGEEKEE	1.8
DVAGNLDYKALSAVITHGEEKEE	2.7
DVAGNLDYKALSYVITHLEEKEE	1.69
DVAGNLDYKALSYVITHREEKEE	2.43
DVAGNLDYKALSYVITHAEEKEE	1.45
DVAGNLDYKALSYVITHFEEKEE	1.88
DVAGNLDYVALSYVITHGEEKEE	2.67
DVAGNLDYRALSYVITHGEEKEE	1.35
DVAGNLDYGALSYVITHGEEKEE	1.98
DVAGNLDYAALSYVITHGEEKEE	2.29
DVAGNLDYNALSYVITHGEEKEE	2.01
DGAGNLDYKALSYVITHGEEKEE	2.06
DWAGNLDYKALSYVITHGEEKEE	4.54
DKAGNLDYKALSYVITHGEEKEE	1.82
DPAGNLDYKALSYVITHGEEKEE	1.67
DDAGNLDYKALSYVITHGEEKEE	2.19
DIAGNLDYKALSYVITHGEEKEE	2.61

Variant	protein stability index
DMAGNLDYKALSYVITHGEEKEE	1.87
DVAGNLDYKALSYGITHGEEKEE	2.28
DVAGNLDYKALSYRITHGEEKEE	1.31
DVAGNLDYKALSYVITHGEEKEH	2.67
DVAGNLDYKALSYVITHGEEKEF	2.69
DVAGNLDYKALSYVITHGEEKEM	2.22
DVAGNLDYKALSYVITHGEEKEP	2.26
DVAGNLDYKALSYVITHGEEKEQ	4.85
DVAGHLDYKALSYVITHGEEKEE	1.92
DVAGGLDYKALSYVITHGEEKEE	2.88
DVAGVLDYKALSYVITHGEEKEE	2.05
DVAGLLDYKALSYVITHGEEKEE	3.25
DVAGTLDYKALSYVITHGEEKEE	2.29
DVAGNLDCKALSYVITHGEEKEE	2.32
DVAGNLDVKALSYVITHGEEKEE	2.62
DVAGNLDKKALSYVITHGEEKEE	1.39
DVAGNLDYKALEYVITHGEEKEE	2.13
DVAGNLDYKALQYVITHGEEKEE	1.7
DVAGNLDYKALIYVITHGEEKEE	2.45
DVAGNLDYKALKYVITHGEEKEE	2.3
DVAGNLDYKALSYVITHGEEKRE	4.24
DVAGNLDYKALSYVITHGEEKPE	4.22
DVAGNLDYKALSYVITHGEEKQE	4.82
DVAGNLDYKALSYVITHGEEKWE	3.59
DVAGNLDYKALSYVITHGEEKDE	4.71

Variants of: B2
Test: as above
Conditions: c terminus: a fixed tail appended

Variant	protein stability index
NIPFFPDLQITDQVALLRLTWSNL	3.71
NIPFFPDLQITDQVALLRLTWSDL	3.12
NIPFFPDLQITDQVALLRLTWSTL	3.56
NIPFFPDLQITDQVALLRLTWSQL	2.12
NIPFFPDLQITDQVALLRLTWSLL	2.57
NIPFFPDLQITDQVALLRLTWSFL	3.75
NIPFFPDLQITDQVALLRLTWSKL	1.55
NIPFFPDLQITDQVALLRLTWSYL	2.74
NIPFFPDLQITDQVALLRLTWSCL	3.21
NIPFFPDLQITDQVALLRLTWSWL	3.24
NIPFFPDLQITDQVALLRLTWSHL	3.17
NIPFFPDLQITDQVALLRLTWSPL	2.24
NIPFFPDLQITDQVALLRLTWSIL	2.96
NIPFFPDLQITDQVALLRLTWSGL	2.17
NIPFFPDLQITDQVALLRLTWSAL	2.71
NIPFFPDLQITDQVALLRLTWSVL	1.76
NIPFFPDLQITDQVALLRLTWSSL	2.97
NIPFFPDLQITDQVALLRLTWSML	3.42
NIPFFPDLQITDQVALLRLTWSRL	2.02
NIPFFPDLQITDQVALLRLTMSEL	2
NIPFFPDLQITDQVALLRLTPSEL	2.42
NIPFFPDLQITDQVALLRLTLSEL	2.08

Variant	protein stability index
NIPFFPDLQITDQVALLRLTKSEL	2.35
NIPFFPDLQITDQVALLRLTCSEL	1.87
NIPFFPDLQITDQVALLRLTGSEL	2.08
NIPFFPDLQITDQVALLRLTASEL	2.49
NIPFFPDLQITDQVALLRLTDSEL	3.41
NIPFFPDLQITDQVALLRLTSSEL	2.36
NIPFFPDLQITDQVALLRLTHSEL	2
NIPFFPDLQITDQVALLRLTQSEL	2.21
NIPFFPDLQITDQVALLRLTYSEL	1.92
NIPFFPDLQITDQVALLRLTESEL	2.78
NIPFFPDLQITDQVALLRLTFSEL	2.36
NIPFFPDLQITDQVALLRLTTSEL	1.79
NIPFFPDLQITDQVALLRLTVSEL	2.4
NIPFFPDLQITDQVALLRLTISEL	1.65
NIPFFPDLQITDQVALLRLTNSEL	2.37
NIPFFPDLQITDQVALLRLTRSEL	2.14
NIPFFPDLQITDQVALLRLTWSEH	2.68
NIPFFPDLQITDQVALLRLTWSEG	1.65
NIPFFPDLQITDQVALLRLTWSEY	1.65
NIPFFPDLQITDQVALLRLTWSEA	1.64
NIPFFPDLQITDQVALLRLTWSEQ	1.9
NIPFFPDLQITDQVALLRLTWSEK	2.25

Variant	protein stability index
NIPFFPDLQITDQVALLRLTWSEP	1.88
NIPFFPDLQITDQVALLRLTWSEW	2.55
NIPFFPDLQITDQVALLRLTWSEE	2.02
NIPFFPDLQITDQVALLRLTWSES	1.9
NIPFFPDLQITDQVALLRLTWSEM	2.87
NIPFFPDLQITDQVALLRLTWSEF	1.99
NIPFFPDLQITDQVALLRLTWSEN	1.97
NIPFFPDLQITDQVALLRLTWSET	1.98
NIPFFPDLQITDQVALLRLTWSEC	2.62
NIPFFPDLQITDQVALLRLTWSEV	2.22
NIPFFPDLQITDQVALLRLTWSER	1.96
NIPFFPDLQITDQVALLRLTWSED	2.11
NIPFFPDLQITDQVALLRLSWSEL	3.1
NIPFFPDLQITDQVALLRLPWSEL	2.02
NIPFFPDLQITDQVALLRLVWSEL	1.95
NIPFFPDLQITDQVALLRLIWSEL	4.49
NIPFFPDLQITDQVALLRLMWSEL	1.89
NIPFFPDLQITDQVALLRLKWSEL	1.59
NIPFFPDLQITDQVALLRLHWSEL	2.49
NIPFFPDLQITDQVALLRLWWSEL	2.46
NIPFFPDLQITDQVALLRLYWSEL	2.69
NIPFFPDLQITDQVALLRLLWSEL	2.23

Variant	protein stability index
NIPFFPDLQITDQVALLRLRWSEL	2.21
NIPFFPDLQITDQVALLRLNWSEL	1.56
NIPFFPDLQITDQVALLRLQWSEL	2.08
NIPFFPDLQITDQVALLRLTWPEL	1.82
NIPFFPDLQITDQVALLRLTWEEL	2.1
NIPFFPDLQITDQVALLRLTWKEL	1.68
NIPFFPDLQITDQVALLRLTWVEL	1.67
NIPFFPDLQITDQVALLRLTWREL	1.53
NIPFFPDLQITDQVALLRLTWCEL	3.38
NIPFFPDLQITDQVALLRLTWGEL	3.17
NIPFFPDLQITDQVALLRLTWNEL	2.28
NIPFFPDLQITDQVALLRLTWMEL	3.55
NIPFFPDLQITDQVALLRLTWDEL	2.4
NIPFFPDLQITDQVALLRLTWLEL	3.32
NIPFFPDLQITDQVALLRLTWYEL	3.13
NIPFFPDLQITDQVALLRLTWHEL	2.71
NIPFFPDLQITDQVALLRLTWTEL	2.19
NIPFFPDLQITDQVALLRLTWWEL	3.5
NIPFFPDLQITDQVALLRLTWIEL	2.24
NIPFFPDLQITDQVALLRLTWFEL	3.38
NIPFFPDLQITDQVALLRLTWQEL	1.91
NIPFFPDLQITDQVALLRLTWAEL	2.17
